Source: patent publication US20200181617, “CHEMICALLY MODIFIED RNA APTAMERS AND USES THEREOF” (ALBERT EINSTEIN COLLEGE OF MEDICINE, published 2020)

Target: T1, LRIG1 (UniProt Q96JA1 Q96JA1:35-794)
T1 sequence: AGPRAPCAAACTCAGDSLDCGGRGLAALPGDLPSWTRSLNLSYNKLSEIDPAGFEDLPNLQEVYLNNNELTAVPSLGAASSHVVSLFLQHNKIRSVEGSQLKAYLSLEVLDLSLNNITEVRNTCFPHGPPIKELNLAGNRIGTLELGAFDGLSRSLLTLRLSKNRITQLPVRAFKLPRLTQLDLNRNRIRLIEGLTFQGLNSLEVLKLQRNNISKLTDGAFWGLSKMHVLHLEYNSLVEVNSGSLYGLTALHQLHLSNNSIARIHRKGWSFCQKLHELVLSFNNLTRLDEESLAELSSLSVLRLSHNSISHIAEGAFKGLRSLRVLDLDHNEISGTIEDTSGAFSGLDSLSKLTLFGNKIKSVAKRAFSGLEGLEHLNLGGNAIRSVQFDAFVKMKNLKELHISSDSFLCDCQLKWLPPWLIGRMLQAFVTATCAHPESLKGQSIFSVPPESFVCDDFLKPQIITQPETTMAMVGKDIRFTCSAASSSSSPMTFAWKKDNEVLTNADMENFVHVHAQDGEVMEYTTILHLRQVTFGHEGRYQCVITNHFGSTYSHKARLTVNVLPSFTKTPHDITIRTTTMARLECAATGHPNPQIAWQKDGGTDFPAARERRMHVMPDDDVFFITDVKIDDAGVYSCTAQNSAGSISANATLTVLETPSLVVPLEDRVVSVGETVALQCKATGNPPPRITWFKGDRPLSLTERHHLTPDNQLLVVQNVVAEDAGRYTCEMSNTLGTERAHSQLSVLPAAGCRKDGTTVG
Test: flow; apparent; protein on Dynal His beads; no signal on non-protein beads
Details: tags: His-tagged, immobilized on magnetic His-capture beads (Dynal His beads)
Protocol: Using a N40 library containing ˜10″ unique sequences, transcribed using a mixture of Phe-dUTP, 2′OMe ATP, 2′OMe CTP and 2′F GTP, SELEX was initiated against the protein LRIG1. In short, the His-tagged protein was immobilized on 1 μm, magnetic His-capture beads and incubated with the library for 30 minutes at 37° C. after which the beads were washed 3 times with buffer, and then any bound library molecules eluted by the addition of wash buffer containing the denaturant guanidine hydrochloride (4M). Following elution the library molecules were recovered by ethanol precipitation and reverse transcribed into DNA using SSIV under optimized conditions (2M betaine). The resulting ssDNA was then amplified by PCR and the resulting dsDNA then transcribed back in to modified RNA by transcription using the LAL-polymerase and a mixture of Phe-dUTP, 2′OMe ATP, 2′OMe CTP and 2′F GTP under the present optimized conditions. The process was repeated for 8 rounds of selection. A fluorescently labeled library was used to monitor the selection by flow cytometry. […] Importantly, when similar experiments were performed using non-protein target loaded beads, no signal over background was observed. […] Subsequent experiments were carried out to clone and sequence the round 6, 7 and 8 population and test individual molecules identified from the screen. […]

B1: Lrig1-Rd8-08 (clone 8) (XNA)
DNA: GGGAAGGAGAGACGACGCGACACCCCCTTGAGTCACAGGTGTGTGAGCGCCGACGGCTTGGTACAGCAGACAAGACCGGACAAGAAGC
modifications: 2'-F G; 2'-OMe A; 2'-OMe C; all T positions are 5-modified dU (Phe-dU)
Kd: ~25 nM

B2: Lrig1-Rd8-11 (clone 11) (XNA)
DNA: GGGAAGGAGAGACGACGCGACACCCGCTTCACCGCTGTGTAACTGCGACGACGGACGTCAGATCAGCAGACAAGACCGGACAAGAAGC
modifications: 2'-F G; 2'-OMe A; 2'-OMe C; all T positions are 5-modified dU (Phe-dU)
Kd: ~35 nM
